Key:
[1] = system: Nc1ncnc2c1ncn2[C@@H]1O[C@H](COP(=O)(O)OP(=O)(O)OP(=O)(O)O)[C@@H](O)[C@H]1O; assay: steady-state kinetics of the nucleosidase reaction; format: biochemical, Escherichia coli; conditions: Mg2+
[2] = biological target: PhnI (C-P lyase nucleosidase) (Escherichia coli, UniProt P16687); format: biochemical
PhnI (C-P lyase nucleosidase), sequence (P16687 whole entry): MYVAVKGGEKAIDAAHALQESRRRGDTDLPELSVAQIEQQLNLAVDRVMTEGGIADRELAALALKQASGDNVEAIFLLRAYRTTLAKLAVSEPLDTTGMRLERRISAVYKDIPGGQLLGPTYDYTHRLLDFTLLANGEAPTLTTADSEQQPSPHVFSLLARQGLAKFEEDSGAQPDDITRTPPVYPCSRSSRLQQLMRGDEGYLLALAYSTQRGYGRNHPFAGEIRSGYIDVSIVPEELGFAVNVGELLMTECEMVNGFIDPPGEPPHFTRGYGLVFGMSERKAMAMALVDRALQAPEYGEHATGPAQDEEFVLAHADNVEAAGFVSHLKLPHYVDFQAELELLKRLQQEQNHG

“PhnI (C-P lyase nucleosidase) (Escherichia coli K-12)” gave a Km [1] of 95 ± 12 µM.
For `Nc1ncnc2c([C@@H]3N[C@H](COP(=O)(O)OP(=O)(O)OP(=O)(O)O)[C@@H](O)[C@H]3O)c[nH]c12` [ImmA-TP, Immucillin-A triphosphate], the Kd [2] was 20 ± 4 nM.

Source: paper PMC3838859 (Biochemistry, 2013)
